Here are results for four molecules from article PMC12753870, “A novel fully human anti-ROR1 antibody PBA-0405 optimized for ADCC, induces potent anti-tumor activity against both solid and hematological malignancies” (Frontiers in Immunology, 2025).

Assay [1] concerns the target recombinant FcγRIIIA (CD16), allotype 158F (UniProt P08637). In words: SPR; Biacore 8K; biotinylated recombinant FcγR proteins immobilised on CAP chips; antibodies as analytes in PBS-P+ buffer, 30 μL/min; 1:1 Langmuir model.
Another assay deals with recombinant FcγRIIA 167H (UniProt P12318). In words: SPR; Biacore 8K; biotinylated FcγR immobilised on CAP chip, antibody as analyte in PBS-P+, 30 µL/min; steady state affinity; doses of 22.0405.aF 240-4000 nM for CD32a, 3-200 nM for CD16b; the legend of Supplementary Figure 2 says 'BLI or SPR'.
Sequence of recombinant FcγRIIA 167H (P12318 34-217): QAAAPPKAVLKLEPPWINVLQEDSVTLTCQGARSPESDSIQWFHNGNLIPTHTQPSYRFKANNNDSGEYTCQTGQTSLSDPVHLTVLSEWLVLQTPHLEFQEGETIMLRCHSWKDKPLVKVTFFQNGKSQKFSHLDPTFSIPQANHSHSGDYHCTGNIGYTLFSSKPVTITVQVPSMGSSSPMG
For the next assay, the target named is recombinant FcγRIIIB (UniProt O75015). The assay is described as above.
Sequence of recombinant FcγRIIIB (O75015 17-200): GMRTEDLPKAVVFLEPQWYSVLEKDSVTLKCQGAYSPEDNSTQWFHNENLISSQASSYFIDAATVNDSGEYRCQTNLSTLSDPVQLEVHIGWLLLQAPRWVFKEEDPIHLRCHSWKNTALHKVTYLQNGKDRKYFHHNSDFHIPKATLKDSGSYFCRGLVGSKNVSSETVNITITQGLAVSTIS
For another assay, the target named is recombinant FcγRI (UniProt P12314). In words: SPR; Biacore 8K; biotinylated FcγR immobilised on CAP chip, antibody as analyte in PBS-P+, 30 µL/min; 1:1 Langmuir fit, KD = koff/kon; doses of 22.0405.aF 8-500 nM for CD64, 31-2000 nM for CD32b; the legend of Supplementary Figure 2 says 'BLI or SPR'.
Sequence of recombinant FcγRI (P12314 16-292): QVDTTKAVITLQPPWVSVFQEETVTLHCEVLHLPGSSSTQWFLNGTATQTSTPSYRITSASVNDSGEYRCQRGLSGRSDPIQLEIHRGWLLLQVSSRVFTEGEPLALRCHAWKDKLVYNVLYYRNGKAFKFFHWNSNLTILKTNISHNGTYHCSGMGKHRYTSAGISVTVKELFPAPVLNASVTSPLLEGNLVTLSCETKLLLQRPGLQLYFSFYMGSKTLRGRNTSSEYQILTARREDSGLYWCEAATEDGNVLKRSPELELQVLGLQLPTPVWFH
The target of a further assay is recombinant FcγRII B/C (UniProt P31994). The assay is described as above.
Sequence of recombinant FcγRII B/C (P31994 43-217): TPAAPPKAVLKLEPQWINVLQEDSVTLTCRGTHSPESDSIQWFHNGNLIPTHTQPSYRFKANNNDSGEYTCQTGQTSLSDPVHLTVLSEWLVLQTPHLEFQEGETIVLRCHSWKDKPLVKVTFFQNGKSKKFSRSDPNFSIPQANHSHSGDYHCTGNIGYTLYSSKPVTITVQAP
Assay [2] has as its target human ROR1 on transfected CHO-K1 cells (CHO-ROR1) (human) (UniProt Q01973).
In assay [3] the target is ROR1 endogenously expressed on JeKo-1 cells (human (endogenous in JeKo-1)) (UniProt Q01973).
Assay [4] has the same target. This is another data set of the same source.
The target in assay [5] is recombinant FcγRIIIA (CD16), allotype 158V (UniProt P08637). In words: SPR; Biacore 8K; biotinylated recombinant FcγR proteins immobilised on CAP chips; antibodies as analytes in PBS-P+ buffer, 30 μL/min; 1:1 Langmuir model.
Sequence of recombinant FcγRIIIA (CD16), allotype 158V (P08637 17-208 F176V): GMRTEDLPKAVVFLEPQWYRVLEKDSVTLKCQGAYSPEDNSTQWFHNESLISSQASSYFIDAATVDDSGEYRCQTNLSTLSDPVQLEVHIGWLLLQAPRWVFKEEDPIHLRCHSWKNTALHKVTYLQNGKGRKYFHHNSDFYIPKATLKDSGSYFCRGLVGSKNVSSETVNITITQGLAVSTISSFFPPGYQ
Assay [6] has as its target T1, recombinant Kringle (KRD) domain of human ROR1 (Homo sapiens, UniProt Q01973).
T1 construct: ROR1, human, Kringle (KRD) domain; source: bought: Acro Biosystems
In words: BLI; Octet RED384; antibodies immobilised on AR2G sensors; dipped in 500 nM recombinant Ig-like, Frizzled or Kringle domain for 150 s, dissociation 200 s. To be noted: both partners purified.

In assay [7] the target is T2, recombinant Ig-like (IG) domain of human ROR1 (aa 39–151) (Homo sapiens, UniProt Q01973).
T2 construct: ROR1, human, Ig-like domain, aa 39–151; source: bought: Acro Biosystems
Described as above. The following applies: both partners purified.

For assay [8], the target named is T3, human ROR2 on transfected CHO-K1 cells (CHO-ROR2) (Homo sapiens, UniProt Q01974).
T3 construct: receptor tyrosine kinase-like orphan receptor 2 (ROR2), human; also called hROR-2; source: CHO-K1 cells, transfected, on cells
In words: flow cytometry on cells; antibody titrated on CHO-K1 cells transfected with ROR1, ROR2 or empty vector, or on cells expressing ROR1 endogenously (JeKo-1); 30 min on ice; detected with APC goat anti-human IgG Fcγ. The following applies: one partner purified.

The target in assay [9] is T4, human ROR1 on transfected CHO-K1 cells (CHO-ROR1) (Homo sapiens, UniProt Q01973).
T4 construct: receptor tyrosine kinase-like orphan receptor 1 (ROR1), human; also called hROR1; CHO cells overexpressing ROR1; source: CHO-K1 cells, stably transfected, on cells
The assay is described as above. The following applies: one partner purified.

Assay [10] addresses T5, recombinant human ROR1/Fc (full-length extracellular domain of ROR1) (Homo sapiens, UniProt Q01973).
T5 construct: receptor tyrosine kinase-like orphan receptor 1 (ROR1), human, full-length extracellular domain; Fitted as a bivalent analyte (1:2 model); also called hROR1; recombinant extracellular part of ROR1; source: bought: R&D Systems
In words: BLI; Octet RED384; antibodies captured on FAB2G (anti-hIgG CH1) biosensors at 5 μg/mL; ROR/Fc as analyte 200–3.13 nM in 10× Kinetics Buffer; 200 s association, 500 s dissociation; 1:2 (bivalent analyte) model; apparent KD = koff1/kon1. The following applies: both partners purified.

The target in assay [11] is T6, recombinant mouse ROR1/Fc (Mus musculus, UniProt Q9Z139).
T6 construct: ROR1, mouse; also called mROR1; source: bought: R&D Systems
T6 sequence (Q9Z139 30-406): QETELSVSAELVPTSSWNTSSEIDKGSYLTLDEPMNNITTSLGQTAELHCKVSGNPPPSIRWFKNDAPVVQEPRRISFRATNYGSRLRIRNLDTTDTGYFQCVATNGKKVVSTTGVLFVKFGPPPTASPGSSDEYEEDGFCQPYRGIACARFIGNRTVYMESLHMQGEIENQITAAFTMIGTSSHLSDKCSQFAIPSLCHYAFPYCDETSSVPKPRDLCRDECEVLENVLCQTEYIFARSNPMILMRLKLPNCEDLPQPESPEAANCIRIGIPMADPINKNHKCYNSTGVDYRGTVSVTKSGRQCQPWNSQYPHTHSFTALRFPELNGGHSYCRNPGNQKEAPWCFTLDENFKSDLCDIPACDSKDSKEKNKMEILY
The assay is described as above. To be noted: both partners purified.

Sequence of recombinant FcγRIIIA (CD16), allotype 158F (P08637 17-208): as the sequence (P08637 17-208 F176V) above, with V160F counted along it

Consider “zilovertamab-like antibody (anti-ROR1 mAb mimicking zilovertamab, humanized native IgG1)”, for which the Kd in assay [1] turned out to be 3400 nM.
For zilovertamab-like antibody, the Kd with recombinant FcγRIIA 167H was 2200 nM; with recombinant FcγRIIIB, more than 4000 nM; in the assay with recombinant FcγRI, 0.054 nM; with recombinant FcγRII B/C, more than 4000 nM.

B1: 22.0405.aF (afucosylated form of 22.0405, fully human anti-ROR1 IgG1) (antibody, V domains shown)
VH: EVQLLESGGGLVQPGGSLRLSCAASGFTFHKYGMAWVRQAPGKGLEWVSSIDDRGRYTYYADSVKGRFTISRDNSKNTLYLQMNSLRAEDTAVYYCARGSYIIWSALDYWGQGTLVTVSS
VL: DIQMTQSPSSLSASVGDRVTITCRPNQNIATYINWYQQKPGKAPKLLIYHDNKRPSGVPSRFSGSGSGTDFTLTISSLQPEDFATYYCQQYEKLPWTFGQGTKVEIK
As to B1, in [2], the NK cell-mediated ADCC towards Raji cells overexpressing human ROR1 (Raji-ROR1); EC50; no statistically significant ADCC towards wild-type Raji cells was 0.002 nM. The tumor cell killing with total PBMCs as effector cells; EC50 in assay [3] came out at 0.02 nM. In addition, in [4], the ADCC by healthy donor NK cells against primary B-CLL cells (65%–99% ROR1-positive); EC50 was determined as 0.018 nM. For the same molecule, the Kd in [1] stood at 57 nM.

B2: 22.0405 (native, fucose-containing fully human anti-ROR1 IgG1 mAb) (antibody, V domains shown)
VH: EVQLLESGGGLVQPGGSLRLSCAASGFTFHKYGMAWVRQAPGKGLEWVSSIDDRGRYTYYADSVKGRFTISRDNSKNTLYLQMNSLRAEDTAVYYCARGSYIIWSALDYWGQGTLVTVSS
VL: DIQMTQSPSSLSASVGDRVTITCRPNQNIATYINWYQQKPGKAPKLLIYHDNKRPSGVPSRFSGSGSGTDFTLTISSLQPEDFATYYCQQYEKLPWTFGQGTKVEIK
notes: human IgG1 heavy chain constant region; IgG1; source: CHOK1 cells (BioIntron, China)
Turning to B2, the Kd stood at 690 nM in assay [1], 217 nM in assay [5], 60 nM in [10] and 240 nM in assay [11]. The results for the binding result in assay [6], in assay [7] and in [8] were “no binding (tested: 500 nM)”, “no binding (tested: 500 nM)” and “no binding”, respectively. Besides, the concentration for a half-maximal effect (EC50) in assay [9] came out at 0.56 nM.
